Measured values as given in patent US7462695B2, “Insect chymotrypsin and inhibitors thereof” (Hexima Limited, priority 2003, dated 2008).
Values belong to the molecule of their own block, whether it stands above or below them.

Columns and labels:
bovine chymotrypsin = bovine chymotrypsin (Bos taurus, UniProt P00766); assay: Inhibition of bovine chymotrypsin; type: biochemical; details: 100 ng bovine chymotrypsin, pH 10; for % Inhibition BC: at maximum concentration tested
Method: (§1) Several proteinase inhibitors were tested for their ability to inhibit the activity of the insensitive chymotrypsins. The buffer used for all assays was 500 mM CAPS, 75 mM NaCl, 2.5 mM MgCl2 at pH 10.

[1] = target: NaPI-insensitive chymotrypsins from H. punctigera (Helicoverpa punctigera, UniProt A0PGE0); assay: Inhibition of NaPI-insensitive chymotrypsin (gut extract depleted of trypsins and NaPI-sensitive chymotrypsins); type: biochemical; details: pH 10, 30 min preincubation at 30° C.; for % Inhibition Insensitive: at maximum concentration tested
Chain of NaPI-insensitive chymotrypsins from H. punctigera (A0PGE0 entry or part of it): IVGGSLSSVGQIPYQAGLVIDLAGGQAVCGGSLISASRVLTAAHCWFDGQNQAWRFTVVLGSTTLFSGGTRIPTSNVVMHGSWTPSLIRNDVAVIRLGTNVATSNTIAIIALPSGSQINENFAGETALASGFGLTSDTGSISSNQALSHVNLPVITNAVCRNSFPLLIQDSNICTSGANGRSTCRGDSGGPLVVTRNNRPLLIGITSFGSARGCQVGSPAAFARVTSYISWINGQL
Method: The midgut was dissected from 100 fourth instar larvae and buffer soluble extracts were prepared. The gut extract was depleted of NaPI-sensitive proteases by passage through an affinity column composed of immobilized NAPI protein (C1, C2, T1-T4). […] This preparation of unbound material was used to study the pH optimum, substrate preference and effect of a range of proteinase inhibitors on the activity of the NaPI-insensitive proteinase. […] The best substrate for enzyme assays was determined using seven different commercial substrates.
as §1

[2] = tested on: chymotrypsin activity in gut extracts of H. punctigera larvae; assay: Inhibition of chymotrypsin activity in individual larval gut extracts (FIG. 2F); type: biochemical, Helicoverpa punctigera; details: 80 nM inhibitor; SAAPFpNA substrate
Source text: (§2) FIG. 2 is a graphical representation showing growth of H. punctigera larvae fed on either low protein haricot bean artificial diet or cotton leaf artificial diet, in the presence or absence of 0.26% (w/v) NaPIs. Weight gain (mg) was monitored for 21 days. […] (A) Growth of larvae. (B) Relative size of larvae at 21 days after feeding on cotton artificial diet, in the presence or absence of 0.26% NaPIs. […] (C) The effect of NaPIs on gut trypsin and chymotrypsin activity. When each H. punctigera larva reached the late fourth/early fifth instar stage of development, the gut was removed and gut extract prepared prior to assays for trypsin and chymotrypsin activity. […] Trypsin activity was determined using BApNA substrate and chymotrypsin activity with SAAPFpNA substrate. Units of activity are expressed as change in absorbance at 405 nm/min/mg gut extract protein (±standard deviation). […] Trypsin activity was determined using BApNA substrate and chymotrypsin activity with SAAPFpNA substrate. Units of activity are expressed as change in absorbance at 405 nm/min/mg faecal extract protein (±standard deviation). […] Frass extracts were analysed on 15% ((w/v)) SDS-PAGE and transferred to nitrocellulose. […] Units of activity are expressed as substrate hydrolysis at 405 nm/min/mg extract protein (±standard deviation). […] Trypsin activity was determined using BApNA substrate. […]

[3] = tested on: chymotrypsin activity in unfractionated gut extracts from H. punctigera; assay: Chymotrypsin activity in unfractionated gut extracts with proteinase inhibitors (FIG. 3); type: biochemical, Helicoverpa punctigera; details: larvae raised on haricot bean diet without added proteinase inhibitors; substrate SAAPFpNA
Method: FIG. 3 is a graphical representation showing the effect of various proteinase inhibitors on the chymotrypsin activity in unfractionated gut extracts from H. punctigera. Proteinase inhibitors were mixed with 1 μg of protein from an unfractionated gut extract before incubation with the chymotrypsin substrate N-succinyl-Ala-Ala-Pro-Phe-p-nitroanilide. Inhibition is expressed as a percentage of the total activity in the control samples.
Fourth-instar larvae were killed using ethyl-acetate prior the removal of individual gut which were then homogenized in a mortar and pestle in an equal amount [(w/v)] of 50 mM Tris-HCl, pH 8.0 containing 100 μM benzamidine. Insoluble material was removed by centrifugation at 20,000 rpm for 15 min at 4° C. and total protein concentration determined using the Bradford method (Bradford, Anal Biochem 72: 248-254, 1976) with reagents from BioRad and BSA as a standard.
Unfractionated gut extract containing approximately 1 μg of buffer soluble protein was added to 10 μL CAPS buffer (0.5 M, 3-[cyclohexylamino]-1-propane-sulfonic acid, pH 10) and made to a final volume of 100 μL in individual wells of a 96 well microtiter plate. Proteinase inhibitors were added over a range of concentrations and incubated for 15 min at 25° C. Bovine chymotrypsin (100 ng) was used as a positive control, both for activity and inhibition. The chromogenic artificial substrate SAAPFpNA (N-Succinyl-L-alanyl-L-alanyl-L-prolyl-L-phenylalanine 4-nitroanilide) was then added to a final concentration of 1 mM and hydrolysis of the substrate was measured at 405 nm using the SpectraMax 250 microtiter plate reader (Molecular Devices).

[4] = tested on: trypsin activity in gut extracts of H. punctigera larvae; assay: Inhibition of trypsin activity in individual larval gut extracts by T1 (FIG. 2F); type: biochemical, Helicoverpa punctigera; details: 80 nM inhibitor; BApNA substrate
Source text: as §2

H. armigera larvae = assay: Bioassay of H. armigera larvae on transgenic cotton expressing NaPI and StPotIA (FIG. 27); type: in vivo, Helicoverpa armigera
Method: FIG. 27 is a graphical representation showing growth of H. armigera larvae on transgenic cotton expressing NaPI and PotI. Transgenic cotton cv Coker 315 was used in bioassays with H. armigera. Thirty larvae were fed leaves of either the control untransformed Coker 315, transgenic line 1 (NaPI), transgenic line 2 (StpotIA) or transgenic plant 3 (NaPI×StPot1A). The weight of the larvae was measured at day 7 post-egg hatch. (A) Growth of larvae. At day 7, larvae fed leaves expressing NaPI were 86% of the weight of the control larvae fed untransformed leaves. Larvae fed leaves expressing StPotIA were 92% of the control and larvae fed leaves expressing both NAPI and StPotIA were 46% of the control. (B) The effect of ingestion of NAPI and PotI on gut trypsin and chymotrypsin activity. Gut from the larvae in each experiment were pooled and extracts prepared. All assays were performed in duplicate. Trypsin activity (black) was determined using BApNA substrate and chymotrypsin activity (grey) with SA2PFpNA substrate. Units of activity are expressed as change in absorbance at 405 nm/min/ug gut extract protein. Trypsin activity was reduced, relative to the control, in the extracts from larvae fed leaves expressing NaPI and NaPI+StPotIA. Chymotrypsin activity was elevated in extracts from larvae fed leaves expressing NAPI or NAPI+StPotIA and reduced in extracts from larvae fed StPotIA alone.
Two gene constructs (pHEX2 and pHEX6) were prepared for transformation of cotton (Gossypium hirsutum). pHEX2 consists of a 35S promoter driving the NaPI gene with a 35S terminator, inserted into the binary vector pBIN 19 (Bevan, Nucl. Acids Research, 12: 8711-8721, 1984). pHEX6 consists of a 35S promoter driving the StPotIA gene with a 35S terminator inserted into the binary vector pBIN 19.
Transgenic cotton was produced using the method of Umbek et al., Biotechnology, 5: 263-266, 1987) with modifications. Hypocotyl sections of cotton Cv Coker 315 were co-cultivated with Agrobacterium tumefaciens strain LBA 4404 containing the required binary vector. […]

[5] = tested on: NaPI-insensitive chymotrypsins from H punctigera; assay: Inhibition of NaPI-insensitive chymotrypsins by StPotIA and StPotIB (FIG. 26); type: biochemical, Helicoverpa punctigera
Method: FIG. 26 is a graphical representation showing inhibition of NaPI-insensitive chymotrypsin by bacterially expressed StPotIA and StPotIB. Inhibition of the NAPI-insensitive chymotrypsin from the gut of H. punctigera with purified PotI. (A) substrate SA2PFpNA, development time 30 min, (B) substrate SA2PLpNA, 30 min incubation. Mix of PotI isoforms from potato tuber (circle), StPotIA (square), StPotIB (triangle).
The inhibitory activity of StPotIA and StPotIB against the NaPI-insensitive chymotrypsins from H punctigera was determined by preincubating the NaPI-insensitive protease (10 μL) with varying amounts of StPotIA and StPotIB (0-600 nM) in 133 mM CAPS buffer, pH 10.0 at 30° C. in 96 well microtitre plates. After the 30 min preincubation, the incubation was started by the addition of substrate (SA2PFpNA, SA2PLpNA or SA2PMpNA) to a final concentration of 1 mM in a final volume of 100 μL. Absorbance was measured at 405 nm after 30 or 60 min.

Molecule: CC(=O)N[C@@H](CC(C)C)C(=O)N[C@@H](CC(C)C)C(=O)N[C@H](C=O)CCCNC(=N)N [Leupeptin, reference compound]
IC50 (bovine chymotrypsin): 2400 µM
% Inhibition BC (bovine chymotrypsin): 52%

Molecule: O=S(=O)(F)Cc1ccccc1 [PMSF, phenylmethyl sulphonyl fluoride, reference compound]
% Inhibition Insensitive [1]: 100%

inhibition of gut chymotrypsin activity [3]: 70%
Molecule: C1: 6 kDa chymotrypsin inhibitor monomer released from the N. alata PI precursor (SEQ ID NO:23) (DRICTNCCAGTKGCKYFSDDGTFVCEGESDPRNPKACTLNCDPRIAYGVCPRSEEKKN; listed as Nicotiana alata)
inhibition of chymotrypsin activity, extracts of control larvae (in words) [2]: did not inhibit chymotrypsin activity in the extracts of six control larvae and only partially inhibited the gut chymotrypsins in the rest of the controls

Molecule: T1: 6 kDa trypsin inhibitor monomer released from the N. alata PI precursor (SEQ ID NO:24) (DRICTNCCAGTKGCKYFSDDGTFVCEGESDPRNPKACPRNCDPRIAYGICPLAEEKKN; listed as Nicotiana alata)
inhibition of trypsin activity, extracts from NaPI-fed larvae [4]: could not be inhibited
inhibition of trypsin activity, extracts of control larvae [4]: almost totally inhibited

B1: StPotIA: PotI homolog cloned from wounded potato leaf RNA, alanine at P1 site (SEQ ID NO:81); E. coli expressed, His-tagged (protein)
chain: MESKFAHIIVFFLLATSFETLMARKEGDGSEVIKLLKESESESWCKGKQFWPELIGVPTKLAKEIIEKENPSINDVPIILNGTPVPADFRCNRVRLFDNILGDVVQIPRVA
modifications: His tag; potato
notes: E. coli expressed, His-tagged
larval weight as % of control larvae fed untransformed leaves (H. armigera larvae; day 7 post-egg hatch, protein expressed in transgenic cotton leaves): 92%
effect on larval growth compared to the control (in words) (H. armigera larvae; expression in cotton leaves): small inhibition of larval growth
gut chymotrypsin activity (H. armigera larvae; pooled gut extracts, SA2PFpNA): reduced
inhibition of the NaPI-insensitive chymotrypsin (in words) [5]: good inhibitors
inhibition of SA2PMpNA hydrolysis ([5]; substrate SA2PMpNA): 40%

IC50 (bovine chymotrypsin): 0.06 µM
% Inhibition BC (bovine chymotrypsin): 100%
% Inhibition Insensitive [1]: 100%
IC50 [1]: 0.24 µM
B2: Bowman Birk: soybean Bowman Birk inhibitor, purchased from Sigma-Aldrich (protein, UniProt P01055 40-110, looked up)
Bowman-Birk type proteinase …: DDESSKPCCDQCACTKSNPPQCRCSDMRLNSCHSACKSCICALSYPAQCFCVDITDFCYEPCKPSEDDKEN
inhibition of gut chymotrypsin activity (in words) [3]: failed to abolish all the chymotrysin activity
